Experimental data from paper PMC8939775, “Structures of the Omicron Spike trimer with ACE2 and an anti-Omicron antibody” (Science (New York, N.y.), 2022).

Biological target: T1, SARS-CoV-2 wildtype (WT) spike extracellular domain trimer (proline substitutions 2P or 6P, mutated furin … (SARS-CoV-2, UniProt P0DTC2))
T1 construct: also called WT spike trimer
Conditions: both partners purified

B1: JMB2002 IgG (antibody, V domains shown)
VH: QVQLVQSGAEVKKPGSSVKVSCKASGGTFSSYAISWVRQAPGQGLEWMGRIIPIFGTANYAQKFQGRVTITADESTSTAYMELSSLRSEDTAVYYCASLASYSSGWEDVFDIWGQGTMVTVSS
VL: DIQMTQSPSSLSASVGDRVTITCRASQGISSWLAWYQQKPGKAPKLLIYDASNLETGVPSRFSGSGSGTDFTFTISSLQPEDIATYYCQQYDNLPLTFGGGTKVEIK
notes: copies: 2 + 2
Work on B1 yielded a Kd of 0.5 ± 0.3 nM.

B2: JMB2002 Fab (Fab, V domains shown)
VH: B1 VH
VL: B1 VL
notes: also called Fab from JMB2002
In the case of B2, the Kd is reported as 12.2 ± 11.6 nM.
